T1: Sortilin SORTECDBAP_tetra (tetraodon)
T1 construct: Fully tetraodon Sortilin ECD with BAP tag; also called tetraodon Sortilin
T1 chain: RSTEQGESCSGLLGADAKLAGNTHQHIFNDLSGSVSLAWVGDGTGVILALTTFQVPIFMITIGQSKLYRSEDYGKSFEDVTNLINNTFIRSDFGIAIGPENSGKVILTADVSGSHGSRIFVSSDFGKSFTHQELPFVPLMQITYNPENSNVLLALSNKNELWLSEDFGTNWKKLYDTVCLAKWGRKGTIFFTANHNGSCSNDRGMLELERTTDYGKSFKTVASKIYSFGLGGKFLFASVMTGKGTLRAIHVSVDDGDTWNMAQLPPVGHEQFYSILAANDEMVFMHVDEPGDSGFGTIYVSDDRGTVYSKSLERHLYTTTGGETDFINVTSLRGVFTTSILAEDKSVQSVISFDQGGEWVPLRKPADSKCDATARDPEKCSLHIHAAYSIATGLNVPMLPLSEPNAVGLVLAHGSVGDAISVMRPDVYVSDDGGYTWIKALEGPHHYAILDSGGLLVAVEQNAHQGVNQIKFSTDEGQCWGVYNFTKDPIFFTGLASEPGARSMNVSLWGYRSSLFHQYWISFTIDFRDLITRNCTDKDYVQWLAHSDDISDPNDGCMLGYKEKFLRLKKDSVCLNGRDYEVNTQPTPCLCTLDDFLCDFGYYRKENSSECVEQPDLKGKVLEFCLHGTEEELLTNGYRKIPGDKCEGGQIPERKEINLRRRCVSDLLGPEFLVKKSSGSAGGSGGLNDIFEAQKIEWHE

T2: Sortilin SORTECD_HIS (human, UniProt Q99523 78-755)
T2 construct: also called Sortilin-ECD-His; HIS-tagged Sortilin ECD
T2 sequence: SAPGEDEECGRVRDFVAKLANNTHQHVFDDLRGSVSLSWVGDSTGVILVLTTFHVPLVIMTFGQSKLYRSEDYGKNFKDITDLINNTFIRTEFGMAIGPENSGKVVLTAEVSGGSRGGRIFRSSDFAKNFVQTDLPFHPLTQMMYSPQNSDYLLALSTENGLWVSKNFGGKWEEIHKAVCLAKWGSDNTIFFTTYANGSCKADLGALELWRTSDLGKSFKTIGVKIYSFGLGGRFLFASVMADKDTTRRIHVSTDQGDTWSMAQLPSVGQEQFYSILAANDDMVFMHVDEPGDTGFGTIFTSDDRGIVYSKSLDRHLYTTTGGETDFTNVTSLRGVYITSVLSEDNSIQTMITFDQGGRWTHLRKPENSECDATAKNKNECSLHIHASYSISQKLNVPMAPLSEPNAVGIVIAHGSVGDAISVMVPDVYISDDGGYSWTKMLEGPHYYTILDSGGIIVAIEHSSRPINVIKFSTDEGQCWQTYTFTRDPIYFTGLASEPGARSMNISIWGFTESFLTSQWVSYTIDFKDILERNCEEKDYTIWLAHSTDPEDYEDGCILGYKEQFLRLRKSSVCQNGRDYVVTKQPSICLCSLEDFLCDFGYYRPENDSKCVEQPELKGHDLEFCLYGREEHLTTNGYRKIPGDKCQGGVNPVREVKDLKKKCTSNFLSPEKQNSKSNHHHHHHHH

T3: Sortilin SORTECDBAP_hB01-05 (human/tetraodon chimera)
T3 construct: Shuffle construct
T3 chain: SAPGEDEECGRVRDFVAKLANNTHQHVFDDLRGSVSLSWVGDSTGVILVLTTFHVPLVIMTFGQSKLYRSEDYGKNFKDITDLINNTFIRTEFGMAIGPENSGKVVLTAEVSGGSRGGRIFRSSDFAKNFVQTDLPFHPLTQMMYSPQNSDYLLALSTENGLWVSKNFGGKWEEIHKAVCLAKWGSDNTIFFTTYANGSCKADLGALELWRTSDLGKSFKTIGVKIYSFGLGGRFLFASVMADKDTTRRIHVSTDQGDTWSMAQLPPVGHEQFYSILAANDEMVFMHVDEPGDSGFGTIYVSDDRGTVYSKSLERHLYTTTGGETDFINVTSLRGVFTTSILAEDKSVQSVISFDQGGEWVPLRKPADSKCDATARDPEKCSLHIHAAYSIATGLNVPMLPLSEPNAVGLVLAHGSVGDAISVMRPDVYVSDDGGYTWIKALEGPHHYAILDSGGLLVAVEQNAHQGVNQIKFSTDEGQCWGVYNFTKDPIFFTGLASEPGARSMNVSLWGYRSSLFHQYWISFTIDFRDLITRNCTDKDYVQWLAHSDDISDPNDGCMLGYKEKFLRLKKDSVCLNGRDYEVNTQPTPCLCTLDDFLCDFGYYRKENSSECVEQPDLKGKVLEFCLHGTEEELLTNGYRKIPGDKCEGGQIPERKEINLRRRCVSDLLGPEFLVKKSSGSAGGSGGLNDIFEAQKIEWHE


Experiments:
[1] = target: T1, Sortilin SORTECDBAP_tetra; test: BLI Octet 384RED (Example 8), Sortilin construct in solution
Experimental: (§1) Binding kinetics of anti-Sortilin HuMab antibodies to Sortilin were determined using Octet 384RED (Fortebio, Menlo Park, USA). HuMab solutions of 2 μg/ml were made by dilution in sample diluent (ForteBio, art. No. 18-5028). Prot A sensors (ForteBio, art. no. 18-0004) were prewetted with kinetics buffer (1:10 sample diluent in PBS) for at least 600 seconds. Subsequently sensors were immobilized with HuMab solution for 600 seconds. A baseline response was obtained by dipping in kinetics buffer for 120 seconds. Association of SORTECD constructs was performed during a 1000 seconds incubation. This was followed by dissociation in kinetics buffer for 100 seconds. After dissociation, sensors were regenerated (10 mM Glycine pH 1.0) and neutralized (kinetics buffer) 3 times for 5 seconds. […] A molecular weight of 76.8 kDA was used for SORTECDHis. Data was fitted with ForteBio Analysis 6.4 software, using a global full fit.

[2] = target: T2, Sortilin SORTECD_HIS; test: HTRF: displacement of PGRN binding to His-tagged Sortilin ECD
Experimental: Dose-response evaluation of antibodies was performed with ten concentrations covering 50 pM to 1 μM in a 3-fold dilution curve. The half-maximal inhibitory concentration (IC50) values were calculated by non-linear regression using sigmoidal concentration response (variable slope) in XLfit 4 (IDBS, UK).
Experiments were performed in assay buffer (50 mM Phosphate, pH 7.0, 0.1% BSA) in a total volume of 20 μl in a Greiner 384 well, white, low volume microtiter plate, (784075, Greiner).

[3] = target: T3, Sortilin SORTECDBAP_hB01-05; test: BLI Octet 384RED, antibody on Protein A sensor, Sortilin construct in solution
Experimental: as §1

binding result [1] | IC50 [2] [nM] | binding result [3] | Binder
no binding (tested: 10 µg/ml construct) | – | – | Antibody 5E1 (antibody, V domains shown, Mouse anti-human Sortilin monoclonal antibody from hybridoma (BALB/c), purified on protein G; Assigned to the D Region; also called 5E1F6; Ab 5E1) VH: EVHLVESGGDLVNPGGSLKLSCEASGFIFSIYGMSWVRQTPDKRLEWVAMISSGGIYTQYPDSVKGRFTISRDNAKNTLYLQMSGLKSEDTGTYHCTRHDDSWFAYWGQGTLVTVSA VL: not shown
– | 32 | no binding (tested: 10 µg/ml construct) | 1320 (antibody, V domains shown, also called IgG1-6003-1320; Antibody 1320) VH: not shown VL: EIVLTQSPATLSLSPGERATLSCRASQSVSSYLAWYQQRPGQAPRLLIYDASNRATGIPARFSGSGSGTDFTLSISSLEPEDFAVYYCQQRTNWSITFGQGTRLEIK
no binding (tested: 10 µg/ml construct) | – | – | Antibody 1F2 (antibody, V domains shown, Mouse anti-human Sortilin monoclonal antibody from hybridoma (BALB/c), purified on protein G; Assigned to the D Region; also called 1F2F4; Ab 1F2) VH: EVQLVESGGDLVKPGGSLKLSCAASGFTFSSYGMSWVRQTPDKRLEWVAIISSGGSYTHYPDSVKGRFTISRDNAKNTLYLQMSSLKSEDTAMYYCARLCGPLCSGYWGQGTSVTVSS VL: QAVVTQESALTTSPGETVTLTCRSSTGAVTTSNYANWVQEKPDHLFTGLIGGTNNRAPGVPARFSGSLIGDKAALTITGAQTEDEAIYFCALWYSNHFWVFGGGTKLTVLG

Reference: patent US20230159643A1 (H LUNDBECK A S, published 2023)
